Reference: US20240336907A1, “NOVEL ENDO-ß-N-ACETYLGLUCOSAMINIDASE” (priority 2020, published 2024)
Numbering of substitutions follows the chain as printed. Names may count otherwise.

B1: Endo-Si T190Q (protein)
chain: MNKRLLVKRTFGCVCAAAILGVAPLSHPTIVEAREELKMPNGLEQSIADVEAKIDALTYLSKNSKDEFKHSMYEIPSNREHKPVSPKQALQNAKKADAQAERLAKMTIPKKEELKALEGPLYGGYFRTWQDKTSDPTETNKVNSFGELPKEVDLAFVFHDYTKDYSLFWEELATKQVPKLNKQGTRVIRQIPWRFLSGADHSDISADKEKFPNTEAGNKALAKAIVDEYVYKYNLDGLDIDIERDSVPKVNDKEDPEALARTVEVFKEIGKLIGANGADKSRLLIMDTTYTAEENPLIKETAQYLNLLLVQVYGFSGENGNYLHHKNILDETSSMEGRWQGYSKYIRPEQYMVGFSFYEEKDFNNRWKDINEEDPSDPHIGEKIQGTRAERYAKWQPKTGGLKGGLFSYAIDRDGVAQPKQKTEHPELDKIVKSEYKVSKALKKLMMTDDQYQPIDQSDFPDKALRESIIKQVGTRRGDLERFKGTLRLDNPEIKDLTGLNKLKRVAKLELINLPKITKIDKDDLPQNLKPLTDNQKSNLEIKGTYDDSKLYKDIPAFDLVISGLSGLESLDISGHQRDTLSGIDASTLPSLKAINISDNHFDLAQGTENRHILDTILATLAKNGASTASFDKQKPKGLYPESYSTAPLHLQVGQGKINVIDDLIFGTRTNQNTLINTENDFEAYKEQTIQGKPFIAPDYLYDNFKVSYKEYSASIVDSTLAETTDKTIDTAKAETYQVTVSNKDGKTVHSVKVIVGDEKPMMVNLAQDAKIIGTDNMTQSAKVFDGQKDQFLLSWNKDSSVIFELKTPGTAKHWRFFDDGKNDSVTLSVFKGDASNFETEKDKAENWVEITKDSRKNDDKVFSSPLEVDNAKYLKVTIKKEAKYIYFNELQILGYPGVVAKKTADDLRPTEADKSDDKSDKNDTEAK
modifications: Amino acid sequence of Endo-Si T190Q
B2: Endo-Si D241Q/Q311L (protein)
chain: B1 chain with Q190T, D241Q, Q311L
modifications: Amino acid sequence of Endo-Si D241Q/Q311L
B3: Endo-Si T190Q/D241M (protein)
chain: B1 chain with D241M
modifications: Amino acid sequence of Endo-Si T190Q/D241M
B4: Endo-Si D241M/Q311L (protein)
chain: B1 chain with Q190T, D241M, Q311L
modifications: Amino acid sequence of Endo-Si D241M/Q311L
B5: Endo-Si D241M (protein)
chain: B1 chain with Q190T, D241M
modifications: Amino acid sequence of Endo-Si D241M
B6: Endo-Si D241M/E360Q (protein)
chain: B1 chain with Q190T, D241M, E360Q
modifications: Amino acid sequence of Endo-Si D241M/E360Q
B7: Endo-Si D241Q/E360Q (protein)
chain: B1 chain with Q190T, D241Q, E360Q
modifications: Amino acid sequence of Endo-Si D241Q/E360Q
B8: Endo-Si D241Q (protein)
chain: B1 chain with Q190T, D241Q
modifications: Amino acid sequence of Endo-Si D241Q
B9: Endo-Si T190Q/D241Q (protein)
chain: B1 chain with D241Q
modifications: Amino acid sequence of Endo-Si T190Q/D241Q

Each molecule was assayed on (Fucα1,6)GlcNAc-mAb2 (assay: Transglycosylation activity with sugar chain oxazoline [N3-PEG(3)]-MSG1(9)-Ox as donor). Details: 1 h; donor [N3-PEG(3)]-MSG1(9)-Ox (8 eq.), enzyme 1.25 μg, 28° C., pH 7.5.
Type: biochemical
Description: Transglycosylation activity was evaluated as follows. […] A sample was taken from each of the reaction solutions at 1, 2, 4, 6, and 24 hours after initiation of the reaction and analyzed for protein by a fully automated electrophoresis system as mentioned above. In the chromatogram obtained, an unreacted product and transglycosylated molecule, mAb2-(MSG1-N3)2 were confirmed as discrete peaks. The transglycosylation rate was calculated based on the peak-area ratio between the unreacted product and the transglycosylated molecule in accordance with the following expression.
Transglycosylation rate (%)=[[peak area of mAb2-(MSG1-N3)2-derived H chain]/{[peak area of (Fucα1,6)GlcNAc-mAb2-derived H chain]+[peak area of mAb2-(MSG1-N3)2-derived H chain]}]×100
Similarly, the transglycosylation rates of individual Endo-Si mutant enzymes at each time period for a reaction were calculated (Table 5).

| Molecule | Transglycosylation rate [%] |
| --- | --- |
| B1 | 97.2 |
| B2 | 5.7 |
| B3 | 43.5 |
| B4 | 31.8 |
| B5 | 98.8 |
| B6 | 99.1 |
| B7 | 73.5 |
| B8 | 75.2 |
| B9 | 26.6 |

Same assay, conditions: 2 h; donor [N3-PEG(3)]-MSG1(9)-Ox (8 eq.), enzyme 1.25 μg, 28° C., pH 7.5

| Molecule | Transglycosylation rate [%] |
| --- | --- |
| B1 | 91.8 |
| B2 | 11.6 |
| B3 | 64.1 |
| B4 | 59.1 |
| B5 | 98.9 |
| B6 | 99.0 |
| B7 | 96.8 |
| B8 | 97.0 |
| B9 | 48.4 |

Same assay, conditions: 4 h; donor [N3-PEG(3)]-MSG1(9)-Ox (8 eq.), enzyme 1.25 μg, 28° C., pH 7.5

| Molecule | Transglycosylation rate [%] |
| --- | --- |
| B1 | 81.8 |
| B2 | 27.4 |
| B3 | 92.7 |
| B4 | 95.9 |
| B5 | 97.4 |
| B6 | 96.2 |
| B7 | 99.0 |
| B8 | 99.1 |
| B9 | 83.3 |

Same assay, conditions: 6 h; donor [N3-PEG(3)]-MSG1(9)-Ox (8 eq.), enzyme 1.25 μg, 28° C., pH 7.5

| Molecule | Transglycosylation rate [%] |
| --- | --- |
| B1 | 76.7 |
| B2 | 44.4 |
| B3 | 98.7 |
| B4 | 99.5 |
| B5 | 97.5 |
| B6 | 95.5 |
| B7 | 99.6 |
| B8 | 99.6 |
| B9 | 96.1 |

Same assay, conditions: 24 h; donor [N3-PEG(3)]-MSG1(9)-Ox (8 eq.), enzyme 1.25 μg, 28° C., pH 7.5

| Molecule | Transglycosylation rate [%] |
| --- | --- |
| B1 | 32.6 |
| B2 | 99.3 |
| B3 | 99.6 |
| B4 | 99.9 |
| B5 | 75.0 |
| B6 | 75.9 |
| B7 | 98.9 |
| B8 | 98.8 |
| B9 | 99.6 |

Each molecule was assayed on (Fucα1,6)GlcNAc-mAb2 (assay: Transglycosylation activity with SGP as donor, in combination with Endo-M N175Q). Details: 2 h; donor SGP (50 eq.), Endo-M N175Q 2.5 mU, Endo-Si enzyme 10 μg, 23° C., pH 7.5.
Type: biochemical
Description: Transglycosylation activity was evaluated as follows. A 50 mM (sodium) phosphate buffer (pH 7.5) solution (17 μL) containing (Fucα1,6)GlcNAc-mAb2 (0.5 mg), SGP (0.485 mg (50 eq.)), Endo-M N175Q (manufactured by Tokyo Kasei Kogyo Co., Ltd.) (2.5 mU) and each of various Endo-Si mutant enzymes (10 μg), was prepared and incubated at 23° C. A sample was taken from each of the reaction solutions at 2, 4, 6, 24, and 48 hours after initiation of the reaction and analyzed for protein by a fully automated electrophoresis system as mentioned above. In the chromatogram obtained, an unreacted product and a transglycosylated molecule, mAb2-(SG)2 are confirmed as discrete peaks. The transglycosylation rates were obtained based on the peak area ratio between the unreacted product and the transglycosylated molecule in accordance with the following expression.
Similarly, transglycosylation rates of individual Endo-Si mutant enzymes at each time period of a reaction were calculated (Table 6).

| Molecule | Transglycosylation rate [%] |
| --- | --- |
| B1 | 13.3 |
| B2 | 2.6 |
| B3 | 3.1 |
| B4 | 6.4 |
| B5 | 12.8 |
| B6 | 11.9 |
| B7 | 8.9 |
| B8 | 15.9 |
| B9 | 4.9 |

Same assay, conditions: 4 h; donor SGP (50 eq.), Endo-M N175Q 2.5 mU, Endo-Si enzyme 10 μg, 23° C., pH 7.5

| Molecule | Transglycosylation rate [%] |
| --- | --- |
| B1 | 27.8 |
| B2 | 5.6 |
| B3 | 6.4 |
| B4 | 13.7 |
| B5 | 27.9 |
| B6 | 27.7 |
| B7 | 20.0 |
| B8 | 35.6 |
| B9 | 10.6 |

Same assay, conditions: 6 h; donor SGP (50 eq.), Endo-M N175Q 2.5 mU, Endo-Si enzyme 10 μg, 23° C., pH 7.5

| Molecule | Transglycosylation rate [%] |
| --- | --- |
| B1 | 43.2 |
| B2 | 8.2 |
| B3 | 13.8 |
| B4 | 24.1 |
| B5 | 40.5 |
| B6 | 42.7 |
| B7 | 30.3 |
| B8 | 52.3 |
| B9 | 21.4 |

Same assay, conditions: 24 h; donor SGP (50 eq.), Endo-M N175Q 2.5 mU, Endo-Si enzyme 10 μg, 23° C., pH 7.5

| Molecule | Transglycosylation rate [%] |
| --- | --- |
| B1 | 93.8 |
| B2 | 48.6 |
| B3 | 50.7 |
| B4 | 79.7 |
| B5 | 96.5 |
| B6 | 98.0 |
| B7 | 94.4 |
| B8 | 98.1 |
| B9 | 71.5 |

Same assay, conditions: 48 h; donor SGP (50 eq.), Endo-M N175Q 2.5 mU, Endo-Si enzyme 10 μg, 23° C., pH 7.5

| Molecule | Transglycosylation rate [%] |
| --- | --- |
| B1 | 93.3 |
| B2 | 76.3 |
| B3 | 77.5 |
| B4 | 97.0 |
| B5 | 96.8 |
| B6 | 98.7 |
| B7 | 98.5 |
| B8 | 98.5 |
| B9 | 92.5 |
